± gives the standard deviation of the averaged measurements.
Assay: total protein half-life in vivo (active degradation + dilution); higher = more stable protein
[1] = E. coli NCM3722 delta-clpP delta-lon delta-hslV, growth: N-lim chemostat, doubling time 6 h
[2] = E. coli NCM3722 delta-clpP, growth: N-lim chemostat, doubling time 6 h
[3] = E. coli NCM3722 delta-hslV, growth: N-lim chemostat, doubling time 6 h
[4] = E. coli NCM3722 delta-lon, growth: N-lim chemostat, doubling time 6 h
[5] = E. coli NCM3722 delta-smpB, growth: N-lim chemostat, doubling time 6 h
[6] = wild type E. coli NCM3722, growth: C-lim chemostat, doubling time 3 h
[7] = wild type E. coli NCM3722, growth: C-lim chemostat, doubling time 6 h
[8] = wild type E. coli NCM3722, growth: C-lim chemostat, doubling time 12 h
[9] = wild type E. coli NCM3722, growth: N-lim chemostat, doubling time 6 h
[10] = wild type E. coli NCM3722, growth: N-lim chemostat, doubling time 12 h
[11] = wild type E. coli NCM3722, growth: P-lim chemostat, doubling time 6 h
[12] = wild type E. coli NCM3722, growth: P-lim chemostat, doubling time 12 h

Question: What does the source list for “MCSIFGVFDIKTDAVELRKKALELSRLMRHRGPDWSGIYASDNAILAHERLSIVDVNAGAQPLYNQQKTHVLAVNGEIYNHQALRAEYGDRYQFQTGSDCEVILALYQEKGPEFLDDLQGMFAFALYDSEKDAYLIGRDHLGIIPLYMGYDEHGQLYVASEMKALVPVCRTIKEFPAGSYLWSQDGEIRSYYHRDWFDYDAVKDNVTDKNELRQALEDSVKSHLMSDVPYGVLLSGGLDSSIISAITKKYAARRVEDQERSEAWWPQLHSFAVGLPGSPDLKAAQEVANHLGTVHHEIHFTVQEGLDAIRDVIYHIETYDVTTIRASTPMYLMSRKIKAMGIKMVLSGEGSDEVFGGYLYFHKAPNAKELHEETVRKLLALHMYDCARANKAMSAWGVEARVPFLDKKFLDVAMRINPQDKMCGNGKMEKHILRECFEAYLPASVAWRQKEQFSDGVGYSWIDTLKEVAAQQVSDQQLETARFRFPYNTPTSKEAYLYREIFEELFPLPSAAECVPGGPSVACSSAKAIEWDEAFKKMDDPSGRAVGVHQSAYK”?
Answer: total protein half-life in vivo [1]: 3.62 ± 0.55 h; total protein half-life in vivo [2]: 2.71 ± 0.25 h; total protein half-life in vivo [3]: 2.84 ± 0.048 h; total protein half-life in vivo [4]: 3.181 ± 0.025 h; total protein half-life in vivo [5]: 2.55 ± 0.069 h; total protein half-life in vivo [6]: 2.87 ± 0.069 h; total protein half-life in vivo [7]: 4.97 ± 0.21 h; total protein half-life in vivo [8]: 7.86 ± 0.95 h; total protein half-life in vivo [9]: 2.69 ± 0.025 h; total protein half-life in vivo [10]: 3.857 ± 0.0049 h; total protein half-life in vivo [11]: 5.61 ± 0.3 h; total protein half-life in vivo [12]: 10.4 ± 0.4 h

Question: For “MNKLIELRRAKRLALSLLLIAAATFVVTLFLPPNFWVSGVKAIAEAAMVGALADWFAVVALFRRVPIPIISRHTAIIPRNKDRIGENLGQFVQEKFLDTQSLVALIRRHEPALLIGNWFSQPENARRVGQHLLQIMSGFLELTDDARIQRLLKRAVHRAIDKVDLSGTSALMLESMTKNDRHQVLLDTLIAQLIALLQRDKSRKFIAQQIVRWLESEHPLKAKILPTEWLGEHSAELVSDAVNSLLDDISRDRAHQIRHAFDRATFALIDKLKNDPEMAARADAVKSYLKEDEAFNRYLSELWGDLREWLKVDINSEDSRVKERIARAGQWFGETLIADDALRASLNGHLEQAAHRVAPEFSAFLTRHISDTVKSWDARDMSRQIELNIGKDLQFIRVNGTLVGGCIGLILYLLSQLPALFPLGNF”, which “total protein half-life in vivo” value [1] is on record?
Answer: Its value is 5.72 ± 0.23 h.

Question: What about the “total protein half-life in vivo” value [3] of the same sequence?
Answer: Its value is 6.12 ± 0.14 h.

Question: And the “total protein half-life in vivo” value [4]?
Answer: Its value is 5.6 ± 0.16 h.

Question: And the “total protein half-life in vivo” value [5]?
Answer: The value was 5.794 ± 0.016 h.

Question: And the “total protein half-life in vivo” value [6]?
Answer: The value was 3.17 ± 0.071 h.

Question: And the “total protein half-life in vivo” value [7]?
Answer: Its value is 5.3 ± 0.096 h.

Question: And the “total protein half-life in vivo” value [8]?
Answer: Its value is 12.3 ± 2.3 h.

Question: What about the “total protein half-life in vivo” value [9] of the same sequence?
Answer: The value was 6.365 ± 0.03 h.

Question: What about the “total protein half-life in vivo” value [10] of the same sequence?
Answer: Its value is 12.37 ± 0.058 h.

Question: What about the “total protein half-life in vivo” value [11] of the same sequence?
Answer: The value was 5.7 ± 0.39 h.

Question: What about the “total protein half-life in vivo” value [12] of the same sequence?
Answer: Its value is 12.4 ± 1.6 h.

Question: With “MWYQKTLTLSAKSRGFHLVTDEILNQLADMPRVNIGLLHLLLQHTSASLTLNENCDPTVRHDMERFFLRTVPDNGNYEHDYEGADDMPSHIKSSMLGTSLVLPVHKGRIQTGTWQGIWLGEHRIHGGSRRIIATLQGE [P0AF48]” as the sequence, how does the “total protein half-life in vivo” value [1] read?
Answer: Its value is 4.54 ± 0.35 h.

Question: What about the “total protein half-life in vivo” value [2] of the same sequence?
Answer: The value was over 8 h.

Question: What about the “total protein half-life in vivo” value [3] of the same sequence?
Answer: Its value is 4.19 h.

Question: And the “total protein half-life in vivo” value [4]?
Answer: Its value is 4.31 ± 0.8 h.

Question: What about the “total protein half-life in vivo” value [5] of the same sequence?
Answer: The value was 4.33 ± 0.17 h.

Question: What about the “total protein half-life in vivo” value [6] of the same sequence?
Answer: The value was 2.96 ± 0.08 h.

Question: What about the “total protein half-life in vivo” value [7] of the same sequence?
Answer: Its value is 4.74 ± 0.15 h.

Question: And the “total protein half-life in vivo” value [8]?
Answer: Its value is 11.9 ± 1.5 h.

Question: What about the “total protein half-life in vivo” value [9] of the same sequence?
Answer: Its value is 3.98 ± 0.048 h.

Question: What about the “total protein half-life in vivo” value [10] of the same sequence?
Answer: The value was 6.66 ± 0.43 h.

Question: And the “total protein half-life in vivo” value [11]?
Answer: The value was 5.51 ± 0.073 h.

Question: What about the “total protein half-life in vivo” value [12] of the same sequence?
Answer: The value was 11.3 ± 0.81 h.

Question: For “MSSNTFTLGTKSVNRLGYGAMQLAGPGVFGPPRDRHVAITVLREALALGVNHIDTSDFYGPHVTNQIIREALYPYSDDLTIVTKIGARRGEDASWLPAFSPAELQKAVHDNLRNLGLDVLDVVNLRVMMGDGHGPAEGSIEASLTVLAEMQQQGLVKHIGLSNVTPTQVAEARKIAEIVCVQNEYNIAHRADDAMIDALAHDGIAYVPFFPLGGFTPLQSSTLSDVAASLGATPMQVALAWLLQRSPNILLIPGTSSVAHLRENMAAEKLHLSEEVLSTLDGISRE”, which “total protein half-life in vivo” value [1] is on record?
Answer: Its value is 5.35 ± 0.76 h.

Question: What about the “total protein half-life in vivo” value [2] of the same sequence?
Answer: Its value is 4.8 ± 0.14 h.

Question: What about the “total protein half-life in vivo” value [3] of the same sequence?
Answer: The value was 4.87 h.

Question: And the “total protein half-life in vivo” value [4]?
Answer: The value was 4.74 ± 1 h.

Question: What about the “total protein half-life in vivo” value [5] of the same sequence?
Answer: Its value is 4.18 ± 0.88 h.

Question: What about the “total protein half-life in vivo” value [6] of the same sequence?
Answer: The value was 3.27 ± 0.3 h.

Question: And the “total protein half-life in vivo” value [7]?
Answer: The value was 5.527 ± 0.039 h.

Question: And the “total protein half-life in vivo” value [8]?
Answer: Its value is 10.8 ± 0.75 h.

Question: And the “total protein half-life in vivo” value [9]?
Answer: The value was 5.01 h.

Question: And the “total protein half-life in vivo” value [10]?
Answer: Its value is 8.77 h.

Question: What about the “total protein half-life in vivo” value [11] of the same sequence?
Answer: The value was 6.443 ± 0.061 h.

Question: What about the “total protein half-life in vivo” value [12] of the same sequence?
Answer: The value was 12.2 ± 0.21 h.

Question: For “METVAYADFARLEMRVGKIVEVKRHENADKLYIVQVDVGQKTLQTVTSLVPYYSEEELMGKTVVVLCNLQKAKMRGETSECMLLCAETDDGSESVLLTPERMMPAGVRVV”, which “total protein half-life in vivo” value [1] is on record?
Answer: The value was 5.14 ± 0.11 h.

Question: And the “total protein half-life in vivo” value [2]?
Answer: The value was 5.33 h.

Question: And the “total protein half-life in vivo” value [6]?
Answer: The value was 2.97 ± 0.48 h.

Question: And the “total protein half-life in vivo” value [7]?
Answer: The value was 4.74 ± 0.58 h.

Question: And the “total protein half-life in vivo” value [8]?
Answer: The value was 8.53 ± 0.87 h.

Question: With “MILFVGFLLMEIVMPQISRTALVPYSAEQMYQLVNDVQSYPQFLPGCTGSRILESTPGQMTAAVDVSKAGISKTFTTRNQLTSNQSILMNLVDGPFKKLIGGWKFTPLSQEACRIEFHLDFEFTNKLIELAFGRVFKELAANMVQAFTVRAKEVYSAR [P0AGL5]” as the sequence, how does the “total protein half-life in vivo” value [1] read?
Answer: Its value is 0.854 ± 0.18 h.

Question: What about the “total protein half-life in vivo” value [2] of the same sequence?
Answer: Its value is 0.857 h.

Question: What about the “total protein half-life in vivo” value [3] of the same sequence?
Answer: Its value is 0.542 h.

Question: What about the “total protein half-life in vivo” value [4] of the same sequence?
Answer: The value was 0.962 h.

Question: And the “total protein half-life in vivo” value [5]?
Answer: Its value is 0.621 ± 0.022 h.

Question: What about the “total protein half-life in vivo” value [6] of the same sequence?
Answer: The value was 0.306 h.

Question: What about the “total protein half-life in vivo” value [7] of the same sequence?
Answer: The value was 0.545 h.

Question: What about the “total protein half-life in vivo” value [9] of the same sequence?
Answer: The value was 0.714 h.

Question: What about the “total protein half-life in vivo” value [11] of the same sequence?
Answer: Its value is 0.372 h.

Question: And the “total protein half-life in vivo” value [12]?
Answer: Its value is 1.13 ± 0.68 h.

Question: Which results are given for “MRMNVFEMEGFLRGKCVPRDLKVNETNAEYLVRKFDALEAKCAALENKIIPVSAELPPANESVLLFDANGEGWLIGWRSLWYTWGQKETGEWQWTFQVGDLENVNITHWAVMPKAPEAGA”?
Answer: total protein half-life in vivo [5]: 2.28 h; total protein half-life in vivo [6]: 2.52 h; total protein half-life in vivo [11]: 3.02 ± 0.68 h; total protein half-life in vivo [12]: 5.84 h

Question: With “MRVLLAPMEGVLDSLVRELLTEVNDYDLCITEFVRVVDQLLPVKVFHRICPELQNASRTPSGTLVRVQLLGQFPQWLAENAARAVELGSWGVDLNCGCPSKTVNGSGGGATLLKDPELIYQGAKAMREAVPAHLPVSVKVRLGWDSGEKKFEIADAVQQAGATELVVHGRTKEQGYRAEHIDWQAIGDIRQRLNIPVIANGEIWDWQSAQQCMAISGCDAVMIGRGALNIPNLSRVVKYNEPRMPWPEVVALLQKYTRLEKQGDTGLYHVARIKQWLSYLRKEYDEATELFQHVRVLNNSPDIARAIQAIDIEKL” as the sequence, how does the “total protein half-life in vivo” value [1] read?
Answer: Its value is 5.15 ± 0.54 h.

Question: What about the “total protein half-life in vivo” value [2] of the same sequence?
Answer: The value was 4.72 ± 0.35 h.

Question: What about the “total protein half-life in vivo” value [3] of the same sequence?
Answer: The value was 4.92 ± 0.12 h.

Question: And the “total protein half-life in vivo” value [5]?
Answer: Its value is 4.76 ± 0.15 h.

Question: And the “total protein half-life in vivo” value [6]?
Answer: The value was 2.89 ± 0.34 h.

Question: What about the “total protein half-life in vivo” value [8] of the same sequence?
Answer: The value was 10.6 h.

Question: And the “total protein half-life in vivo” value [9]?
Answer: The value was 5.2 ± 0.37 h.

Question: What about the “total protein half-life in vivo” value [10] of the same sequence?
Answer: Its value is 8.91 ± 1.2 h.

Question: And the “total protein half-life in vivo” value [11]?
Answer: The value was 5.81 ± 0.9 h.

Question: And the “total protein half-life in vivo” value [12]?
Answer: The value was 11.7 ± 1.4 h.

Source: the supplement of paper PMC11246515
